Test: soluble on expression in E. coli; label from the status in PepcDB or PDB records

Row | Sequence | soluble on expression in E. coli
1 | MISGPFLHFDPTVPLQTVMIGHPATSPLSLPSSSSSPTVADPSNIHCRVCERRYDGSQHFGIDICRACAAFFRRSVAVKKTFVCRRGTNKCELNTVSRKTTCQKCRWMRCLLVGLNVDAVVGRRSPDHVKTTSRDESVKKEDEESDTGSEGKSCEDMDVSHPIEQFQQQISFSVHRPIPTIGNPNIYTTRASLINKVLINYNEFTKSRLDVELSLKHMQQDSKVFGSTGIPIVPATREIISEIYQKQFGLLHIFLKNTFDEYAECDVQEQKRICAMFYPVLWEIESCYWTYRNMPVQPEYETLMMCTQTTYIDSKNVRYWLGNTTGLNESDIQAVEARLENLLTKARNLVLEPMHKLIIKEFEFITLLALNIWAPRNHRGCVSEDRAEQVRDALFDDLHYLYCDGLKIDKYSSRMGEMMCLHTEVQNADMSSTIKNILFSDLNAYLYSI | not soluble
2 | MISKTSILLLGFACAAVGANYIESAIFKFDDSCEPLEEPRKPEVAKCYEPSTSLPKTLEEYRAMGYDWGEFVHDDKADQAPEGLDEVFTYPMVPFIGMSLLASKKF | not soluble
3 | MISNRILQTTVDGLKAISRVDLCIVDADKNVAAKTFDNVSECLADAISFIDSPAESQAVNGFQFFKVEDEGNLEYIIMARGTSDDVYMVGKLAAFQIQNLLVAYKERFDKDNFIKNLLLDNLLRVDMYTRAEKLHIETDVKRVVYIIETKHEKDTSALETVRTLFANKTRDFITAVDEKSIILVKEVKGNESYDELDKTADVIIDMLNTEAMSAAHVAYGTIVNDIREVSRSYKEAKMALDVGKIFYSNKNVVAYNRLGIGRLIYQLPIPLCQMFIKEIFEGKAPDDFDDETLSTINKFFENSLNVSETSRQLYIHRNTLVYRLDKIQKITGLDLRVFDDAITFKIALMVVKYMKYMESKDTF | not soluble
4 | MISPELVKEALKKKKVRSEEAFGLEYLRFNDDYKDIPRGTAIFKDFIIWGYPHIGRIFLLETGLREQFEAPFWVEEKVDGYNTRIFKYGDNYYALSRGGFICPFTTDRLPDLIDLRILDENPDLVICAEVAGPENPYIEESPPYVKEDVQLFVFDFMKKNEQGFLSQEEKMELIEKYNLPHVEILGRFTASEEGIKKIKEILKRFNEEGREGVVFKEDSERNKRAKYITSYANLMDIKTNAKNMLQLPPEYYTNRILRLVLFMYEEGLKTTEHLYEELGRAFIDGLFQAIEQFEKEHKVYKTFTCKFRKKENAIALLELLSKTSKHIQVKERRLEKEGDYWRLEFDKVFLNMTGLLGHLLSGGIVYD | soluble
5 | MISPKKEITSSKYQKIAISVAQRIANGEYEVGEKLKSRTTIASTFNVSPETARKGLNILADLKILTLKHGSGAIVLSKERAIEFINQYESTHSIAVLKEKIRETINDQGKAMEKMAVLVNDFLMQSQSVSKQYPLAPYEIICNQDSEHFGKSIGVLNIWHQTGATIVAIEHAGQFIVSPGPYSVIEKGDHIYFVGDESVISRMKTFFNLRKGL | not soluble
6 | MITAIVFDVDDTIYDQQAPYRIAMEKCFPDFDMSVMNQAYIRFRHYSDVGFPRVMAGEWTTEYFRFWRCKETLLEFGYREIDEAAGVHFQEVYEHELENITMLDEMRMTLDFLKSKNVPMGIITNGPTEHQLKKVRKLGLYDYIDAKRVIVSQATGFQKPEKEIFNLAAEQFDMNPQTTLYVGDSYDNDIMGAFNGGWHSMWFNHRGRQLKPGTKPVYDVAIDNFEQLFGAVKVLFDLPDNKFIFDVNDKKNPILQMGINNGLMMAAERLLESNMSIDKVVILLRLTKQQEKVLRLKYAR | not soluble
7 | MITDEHIELFLAQAHRYGDAKLMLCSSGNLSWRIGEEALISGTGSWVPTLAKEKVSICNIASGTPTNGVKPSMESTFHLGVLRERPDVNVVLHFQSEYATAISCMKNKPTNFNVTAEIPCHVGSEIPVIPYYRPGSPELAKAVVEAMLKHNSVLLTNHGQVVCGKDFDQVYERATFFEMACRIIVQSGGDYSVLTPEEIEDLEIYVLGKKTK | soluble
8 | MITEKRHELILTELSKQDFLTLQELIERTGCSASTIRRDLSKLQKFGKLKRVHGGATLNQSSALEPNLADKRSTNLREKQEIGRLAASQIENRDCVFLDAGSTTLEMIPYIKASDIIVVTNGLTHVEELLKHGIRTLIIGGEVKSTTFATVGASALETLRRYRFDKVFLGMNGIDLKYGLTTPDEQEAIIKHHAMQLGTQVYVLIDHDKYEKVYFAHVPLEEGVSIITSKKAQSLKQFHLFAGQYNFIGGTLLEHHHHHH | soluble
9 | MITLIFPGFNNVHVSGMDIEEKIRKIEEEIQKTPYNKATAHHIGKLKAKISRLKEEALQRKTSSGKGRGFHIKKSGDSTVVLIGFPSVGKSTLLNELTSAESKVGDYQFTTLEIVPGVMEYRGAQIQIFDIPGIITGASRGRGRGREILSVARSADLIVIVLDVFNTDHMDIILRELRDVGIRPNETPPDVIVKRRKLGGVKLSATVELTHLDEKIIRSVLNEYGIHNADVLIRDDITVDQFIDVMEANRAYIPAITVINKIDLVDESYLEGLREKFPEALFISADRDINIDELREEIFNRLGLIRIYLKPQGKKADYDEPLIIREGSTVGDVCQKLHRDFVRKFRHARVWGSSVKFDGQKVGLEHVLNDEDVLRIIIKK | not soluble
10 | MITMKISSRFSIAVHILSILKNNPSSLCTSDYMAESVNTNPVVIRKIMSYLKQAGFVYVNRGPGGAGLLKDLHEITLLDVYHAVNVVEEDKLFHIHEQPNPDCPIGANIQAVLEIILIQAQSAMEEVLRNITMGQLFETLQEKMNA | soluble
11 | MITMPKLFIYHANQCNPKKCTSLKMAKMNKAILLKNPYKVPKNSLILNPYAEKALSPEDKEIVEKFGITALDCSWKEAELMFKKFKFKNQRSLPFLVACNPINYGKPCMLSTLEAFIAALYITNFKDEAWDLTSCFKWAETFIKVNYELLERYSNAKNSMEVVEIQQDFLRKLEHHHHHH | soluble
12 | MITPDLESGVKVWHLVKNHDHGDQKEGDRGSKMVSEIYLTRLLATKGTLQKFVDDLFETLFSTVHRGSALPLAIKYMFDFLDEQADRHSIHDTDVRHTWKSNCLPLRFWVNVIKNPQFVFDIHKGSITDACLSVVAQTFMDSCSTSEHRLGKDSPSNKLLYAKDIPSYKNWVERYYADIAKLPAISDQDMNAYLAEQSRLHATEFNMLSALNEIYSYVSKYSEELIGALEQDEQARRQRLAYKVEHLINAMSIES | not soluble
13 | MITRDFFLFLSKSGFLNKMARNWGSRVAAGKIIGGNDFNSSIPTIRQLNSQGLSVTVDHLGEFVNSAEVARERTEECIQTIATIADQELNSHVSLKMTSLGLDIDMDLVYENMTKILQTAEKHKIMVTIDMEDEVRCQKTLDIFKDFRKKYEHVSTVLQAYLYRTEKDIDDLDSLNPFLRLVKGAYKESEKVAFPEKSDVDENYKKIIRKQLLNGHYTAIATHDDKMIDFTKQLAKEHGIANDKFEFQMLYGMRSQTQLSLVKEGYNMRVYLPYGEDWYGYFMRRLAERPSNIAFAFKGMTKKLEHHHHHH | soluble
14 | MITVSIVSHGQSTLVEQLLADLVRLDMSMVTEVLVTLNIPEDISSKPGDYPYPVRILRNTAARGFGANHNAAFRQAEGEWFCVMNPDIRLINNPFPILIEEGAYDSAGVIAPMVVTPSGMIEDSVRCFPVLTSLAAKLFGHGDGRYLFAAGDEAFAADWVAGMFMLFRTEDFRAVGGFDEGFFLYYEDVDICARLWKSGRSVLACPKASVIHDARRSSRRNLRYMKWHALSLIRYFWKHWGRLPQTPEQLEHHHHHH | soluble
15 | MIVERVLYNIKDIDLEKLEVDFVDIEWYEVQKKILRKLSSNGIEVGIRNSNGEALKEGDVLWQEGNKVLVVRIPYCDCIVLKPQNMYEMGKTCYEMGNRHAPLFIDGDELMTPYDEPLMQALIKCGLSPYKKSCKLTTPLGGNLHGYSHSHSH | not soluble
16 | MIVIFVHGWSVTHTNTYGELPQWLENQSKQGKLDIQVGNIYLGRYISFDDTVTVDDIARAFDQAVRDEIAAKVKDGQRFACITHSTGGPIVRKWMDLYFKNNLAKCPLSHLIMLAPANHGSALAQLGKSRLGRIKSFFEGIEPGKCVLDWLELGSDMSWQLNESWLDYDCTANGVYSFVLTGQKIDRQLYDAVNSYTGESGSDGVVRVAATNMNYSLLKLHQEGDNGESLVVAKMTRTQPMAFGVLPGLSHSGKNIGIIRSITMANAATHPTAIWVLRCLQVKSRDSYNKLVKELDNITKETQKNEHKEFVKTLVFTREYITNRYSMIIFRLIDDRGNHLIDYDLYLTAGPQYSEQALPAGFFVDRQRNLNNRGKLTYFLDYDIMEGGINTPKMQGNLGFRVKAYPESSEQALAYYRLLDFHSSLADIHKILHPNETVMVEIMLQRRVDKTVFRINNNLTPAKISGKPTGKKID | not soluble

Source: the DeepSol protein solubility set
